For experiment [1], the target named is T1, extracellular domain of human CD79b (huCD79becd) (human, UniProt P40259 29-159).
T1 construct: Expressed in CHO cells
T1 sequence: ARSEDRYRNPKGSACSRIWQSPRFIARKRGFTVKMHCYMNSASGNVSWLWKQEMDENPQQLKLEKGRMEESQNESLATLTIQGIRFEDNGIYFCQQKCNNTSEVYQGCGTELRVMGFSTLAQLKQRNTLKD
Nature of the experiment: Biacore surface plasmon resonance; huCD79becd immobilized on CM5 chip, IgG injected. The protocol: (§1) Binding of Fab and IgG variants of ch2F2, the 2F2-grafted “humanized” antibody (hu2F2 graft) or 2F2-grafted “humanized” antibody variant 7 (hu2F2.D7) to immobilized huCD79becd or CD79b-Fc or the 16 amino acid peptide containing the epitope for 2F2 was measured by surface plasma resonance. Affinity determinations were performed by surface plasmon resonance using a BIAcore™-2000. The antigen, huCD79becd or huCD79b-Fc was immobilized (approximately 50-200 RU) in 10 mM sodium acetate pH 4.8 on a CM5 sensor chip. In experiments that measured binding to the 16 amino acid peptide ([…]) (SEQ ID NO: 78) containing the epitope (amino acids 1-11 of SEQ ID NO: 78) for 2F2, the biotinylated peptide was captured (approximately 20 RU) on a streptavidin coated sensor chip. Purified 2F2-grafted “humanized” antibody variant (as Fab or IgG) (a 2-fold serial dilution of 0.5 to 1000 nM in PBST) was injected at a flow rate of 30 μL/min. Each sample was analyzed with 4-minute association and 10-minute disassociation. After each injection the chip was regenerated using 10 mM Glycine pH 1.7.
(§2) Binding response was corrected by subtracting a control flow cell from 2F2-grafted “humanized” antibody variant (as Fab or IgG) flow cells. A 1:1 Languir model of simultaneous fitting of kₒₙ and koff was used for kinetics analysis.
A general note: In SPR one partner is held on a chip, and binding of the other changes the refractive index at the surface.

Experiment [2] has as its target T2, extracellular domain of human CD79b fused to Fc (huCD79becd-Fc) (human, UniProt P40259 29-159).
T2 construct: Expressed in CHO cells; also called huCD79b-Fc; CD79b-Fc
T2 sequence: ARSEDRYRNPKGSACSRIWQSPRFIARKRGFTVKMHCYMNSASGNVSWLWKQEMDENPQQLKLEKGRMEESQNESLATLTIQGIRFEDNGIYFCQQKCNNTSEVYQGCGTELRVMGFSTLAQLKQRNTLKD
Nature of the experiment: Biacore surface plasmon resonance; huCD79becd-Fc immobilized on CM5 chip, IgG injected. As for the experimental part: as §1, §2

Experiment [3] concerns the target T3, 16 amino acid peptide (ARSEDRYRNPKGSACK) containing the epitope for 2F2 (human, also: biotinylated, site not given here).
T3 construct: Synthetic peptide; Captured as biotinylated peptide on a streptavidin sensor chip; also called 16mer peptide; test peptide
T3 peptide: ARSEDRYRNPKGSACK
The experiment is described as follows: Biacore surface plasmon resonance; biotinylated peptide captured on streptavidin chip, IgG injected; the sheet names the antigen '15mer peptide', legend and text name only the 16mer peptide (SEQ ID NO: 78). As for the experimental part: as §1, §2

Experiment [4] has as its target T4, human CD79b on BJAB cells (human, UniProt P40259 29-229).
T4 construct: Endogenous CD79b of BJAB cells; also called PRO36249; endogenous human-CD79b
T4 sequence: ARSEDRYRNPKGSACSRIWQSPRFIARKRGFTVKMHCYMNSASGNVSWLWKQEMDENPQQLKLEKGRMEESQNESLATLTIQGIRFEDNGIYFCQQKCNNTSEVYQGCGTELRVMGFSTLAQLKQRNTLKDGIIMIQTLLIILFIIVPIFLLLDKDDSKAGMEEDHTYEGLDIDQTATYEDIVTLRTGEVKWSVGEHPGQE
The experiment is described as follows: Scatchard analysis, I-125 tracer competed by unlabeled IgG on BJAB cells stably expressing cynomolgus CD79b and endogenous human CD79b; ch2F2 IgG; BJAB cells stably expressing cynomolgus CD79b and endogenous human CD79b. As for the experimental part: (§3) To further determine binding of the IgG variants of the 2F2-graft “humanized” antibody variant 7 (hu2F2.D7) having changes in HVR-L3, binding of iodinated anti-CD79b (with the same epitope as ch2F2) to BJAB cells expressing human CD79b and cynomologous CD79b using competition with unlabeled ch2F2 was analyzed and Scatchard analysis was performed.
(§4) For Scatchard analysis, 0.5 nM I¹²⁵ labeled anti-human CD79b with the same epitope as ch2F2 or 0.5 nM I¹²⁵ labeled 2F2-graft “humanized” antibody variant 7 (hu2F2.D7) was competed against unlabeled ch2F2 or hu2F2.D7, respectively, ranging from 50 to 0.02 nM (12 step 1:2 serial dilution) in the presence of a transfected BJAB line stably expressing cynomologous-CD79b and endogenous human-CD79b. After a four hour incubation at 4° C., cells were washed and cell pellet counts were read by a gamma counter (1470 WIZARD Automatic Gamma Counter; Perkin Elmer, Walthem, Mass.). All points were done in triplicate and counted for 10 minutes. The average CPM was used for Kd calculation using the New Ligand (Genentech, South San Francisco, Calif.) program.

Experiment [5] has as its target T1, extracellular domain of human CD79b …. The experiment is described as follows: Biacore surface plasmon resonance; huCD79becd immobilized on CM5 chip, Fab injected. The protocol: as §1, §2
In experiment [6] the target is T3, 16 amino acid peptide …. The experiment is described as follows: Biacore surface plasmon resonance; biotinylated 16mer peptide captured on streptavidin chip, IgG injected. As for the experimental part: as §1, §2
Experiment [7] concerns the target T4, human CD79b on BJAB cells. The experiment is described as follows: Scatchard analysis, I-125 hu2F2.D7 competed by unlabeled hu2F2.D7 IgG on BJAB cells stably expressing cynomolgus CD79b and endogenous human CD79b; hu2F2.D7 reformatted as IgG; BJAB cells stably expressing cynomolgus CD79b and endogenous human CD79b. As for the experimental part:
as §3, §4

No end group written: not given here.

B1: chimeric 2F2 antibody (ch2F2) IgG1 (antibody, V domains shown)
VH: QVQLQQPGAELVRPGASVKLSCKASGYTFTSYWMNWVKQRPGQGLEWIGMIDPSDSETHYNHIFKDKATLTVDKSSSTAYLQLSSLTSEDSAVYYCARNLYLWGQGTSVTVSL
VL: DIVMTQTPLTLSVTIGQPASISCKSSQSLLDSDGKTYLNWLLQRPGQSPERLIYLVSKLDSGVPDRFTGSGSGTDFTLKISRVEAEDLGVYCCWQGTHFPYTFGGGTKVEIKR
Usually Kd stands for the constant that tells how readily two partners part at equilibrium. B1: the Kd turned out to be 1.4 nM in experiment [1], 2.7 nM in experiment [2], 2 nM in experiment [3] and 0.99 nM in experiment [4].

B2: hu 2F2.D7 (Fab column) (Fab, V domains shown)
VH: EVQLVESGGGLVQPGGSLRLSCAASGYTFTSYWMNWVRQAPGKGLEWVGMIDPSDSETHYNHIFKDRFTISADTSKNTAYLQMNSLRAEDTAVYYCARNLYLWGQGTLVTVSS
VL: DIQMTQSPSSLSASVGDRVTITCKSSQSLLDSDGKTYLNWYQQKPGKAPKLLIYLVSKLDSGVPSRFSGSGSGTDFTLTISSLQPEDFATYYCFQGTHFPFTFGQGTKVEIKR
notes: also called 2F2-grafted humanized antibody variant 7 as purified Fab; copies: 1 + 1
B2 showed a Kd in experiment [5] of 68 nM.

B3: 2F2-grafted "humanized" antibody variant 7 (hu2F2.D7), reformatted as IgG (antibody, V domains shown)
VH: EVQLVESGGGLVQPGGSLRLSCAASGYTFTSYWMNWVRQAPGKGLEWVGMIDPSDSETHYNHIFKDRFTISADTSKNTAYLQMNSLRAEDTAVYYCARNLYLWGQGTLVTVSS
VL: DIQMTQSPSSLSASVGDRVTITCKSSQSLLDSDGKTYLNWYQQKPGKAPKLLIYLVSKLDSGVPSRFSGSGSGTDFTLTISSLQPEDFATYYCFQGTHFPFTFGQGTKVEIKR
notes: also called humanized 2F2.D7
Turning to B3, the Kd came out at 3.9 nM in experiment [1], 2.7 nM in experiment [6] and 2 nM in experiment [7].

For the origin of these results see patent US20090068202A1 (Genentech, published 2009).
